Data as given in patent US20210070807A1 (MOREHOUSE SCHOOL OF MEDICINE, published 2021).

Target: mortalin (UniProt P38646 47-679)
Assay: cell-based or functional assay

Chain of mortalin (P38646 47-679 limits assumed): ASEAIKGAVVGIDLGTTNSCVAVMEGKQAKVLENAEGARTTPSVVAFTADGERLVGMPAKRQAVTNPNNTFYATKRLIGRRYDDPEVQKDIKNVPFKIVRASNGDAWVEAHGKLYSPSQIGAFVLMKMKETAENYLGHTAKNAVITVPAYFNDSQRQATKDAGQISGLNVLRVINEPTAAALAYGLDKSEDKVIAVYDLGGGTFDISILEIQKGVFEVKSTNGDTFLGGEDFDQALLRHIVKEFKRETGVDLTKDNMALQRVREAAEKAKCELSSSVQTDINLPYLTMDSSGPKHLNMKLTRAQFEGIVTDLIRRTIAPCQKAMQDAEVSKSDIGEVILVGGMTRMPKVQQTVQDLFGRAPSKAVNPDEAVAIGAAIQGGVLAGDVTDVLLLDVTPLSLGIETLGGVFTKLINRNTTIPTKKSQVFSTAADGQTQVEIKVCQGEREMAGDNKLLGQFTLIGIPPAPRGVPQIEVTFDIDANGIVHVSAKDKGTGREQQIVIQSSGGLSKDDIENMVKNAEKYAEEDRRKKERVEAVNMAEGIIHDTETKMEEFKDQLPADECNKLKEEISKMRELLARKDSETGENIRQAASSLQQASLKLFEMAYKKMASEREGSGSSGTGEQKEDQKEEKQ

## VGFPVAAVGFPVGRKKRRQRRRPPQ [SMRwt-CPP peptide]
  IC50 of proliferation, MTT assay, K562 cells, 24 hours: 907 nM/mL
  IC50 of proliferation, MTT assay, MCF-7 cells, 24 hours: 180 nM/mL
  IC50 of proliferation, MTT assay, MDA-MB-231 cells, 24 hours: 476 nM/mL
